Experimental data: PMC2768378 (2009)

Target: H2A.Z-H2B (Saccharomyces cerevisiae, UniProt Q12692)
Assay: relaxation dispersion NMR

- Kd: ~200 nM
B1: Chz1 (protein)
chain: SDEAKEKRELESQKESSHNKSEKSVEPKPKRRRRRNYDDYDAEVAKEETKAKNGLTKSENNGTVEDSESDMDDAKLDALMGNEGEEEEDDLAEIDTSNIITSGRRTRGKVIDYKKTAEELDKKEPSTGSKDDVGYGEKEEDDEDEEDDDFKE
